Test system: MS2 coat protein
Experiment: apparent KD of MS2 coat protein; designed switch direction (-1 OFF switch, 1 ON switch): -1; higher = weaker reporter binding
In short: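 The buffer was Tris-HCl pH 7.5 with KCl, MgCl2, BSA, DTT, tRNA and Tween-20. In it, SNAP-549-labelled MS2 coat protein was titrated in doubling steps from 0.7 or 1.5 nM to 3 µM over chip-bound RNA switches transcribed by stalled E. coli RNA polymerase on Illumina chips. Apparent KD is the per-design median over clusters of curve fits to normalised fluorescence.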

[1] = Eterna round: R95, input ligand: microRNA oligo, concentration not stated
[2] = Eterna round: R95, input ligand: FMN 200 uM
[3] = Eterna round: R95, input ligand: none
[4] = input ligand: microRNA oligo, concentration not stated

| Sequence | apparent KD of MS2 coat protein (input ligand: FMN 200 uM) | apparent KD of MS2 coat protein (input ligand: none) | apparent KD of MS2 coat protein [1] | apparent KD of MS2 coat protein [2] | apparent KD of MS2 coat protein [3] | apparent KD of MS2 coat protein [4] |
| --- | --- | --- | --- | --- | --- | --- |
| UUGCGGAGAGGAUAUACAUAGGCGGAUUGGUAGACUCAAAUACAUGAGGAUCACCCAUGUAGAAGGCUUGAUCA [Eternabot (L2) Solution 22] (Eterna round: R97, puzzle: Exclusion 2) | 0.144 µM | 0.0504 µM |  |  |  |  |
| CUGUGCACGCUGCGAUCCUACAUGAGGAUCACCCAUGUGGUCUGGUGGCGUGGGUCACCGGACUUGGCUCGUCUUGA [salish99_S_TOV1_R5_070] (Eterna round: R97, puzzle: Sensor, turn-off variant 1) | 0.147 µM | 0.156 µM |  |  |  |  |
| GCAUGGAAAGUGAGGAUAUACCACUGGAUACAGUGGUAGAAGGCACAUGAGGAUCACCCAUGUUUCUACCAUGC [Fiskers BMX 4 - 40] (puzzle: Brourd's mod of Exclusion 4) |  |  | 0.0127 µM |  |  |  |
| CUUUGGGCAGGAUAUGCUGUUUGUGACAUGAGGAUCACCCAUGUGAUGCAGUUUGGGUGUGCAGAAGGGCCUGAGA [JR_E5_Sub030] (puzzle: Exclusion 5) |  |  | 0.0726 µM | 0.115 µM | 0.11 µM |  |
| AGAAACUCAAGAGGAUAUCACAUGAGGAUCACCCAUGUAUAGCGCGCUAUGCUAGUCCUCGUAUAUGAGAAGGUUUGAAAUAAG [Mat - Exclusion NG 2 - Mod of JL - D80] (Eterna round: R96, puzzle: Exclusion NG 2) | 0.0164 µM | 0.0179 µM |  |  |  | 0.0126 µM |
| AUGGUACAUGAGGAUCACCCAUGUUAGGAUAUCGCGUGAUCUAAAACUAAGAGACACACGAGAAGGGACGACAU (puzzle: Exclusion 1) |  |  | 0.128 µM |  |  |  |
| GAACCGCGAGGAUAUACAGUCGAGUCCAUUACGUGUCUCGGACUUGAGGAUCACCCAAGUAGAAGGCGUCUCAG [salish99_ex2_r4_634] (Eterna round: R97, puzzle: Exclusion 2) | 0.0963 µM | 0.188 µM |  |  |  |  |
| GAGGGACAUGAGGAUCACCCAUGUGAGGAUAUGUAAGAGAGAGGAGAGAGGAUAAGAAACAGAAGGCGCGUGAG [JR_Exclu1_Sub089] (puzzle: Exclusion 1) |  |  | 0.0557 µM | 0.0301 µM | 0.0432 µM |  |
| ACUGUUCGAGGAUAUACGAUCGUGCUUCGGCACGUAAGAUCACAUGAGGAUCACCCAUGUAGAAGGCGAACAGU [Mod 5 - Jieux - Exclusion 2] (Eterna round: R97, puzzle: Exclusion 2) | 0.292 µM | 0.0386 µM |  |  |  |  |
| UAUUAGCAAGCAAAUGGGUACAUGAGGAUCACCCAUGUGCUCGUCUUAUAAGGUACUGUGCCGAAAGUCACGGUACC [mod--Eli2] (Eterna round: R97, puzzle: Sensor, turn-off variant 1) | 0.023 µM | 0.0234 µM |  |  |  |  |
| ACUUGUGCCCUAGGAUAUCGCCCAGCCAAUGGAUGAGAAGGAGGCGGGUGAAACAUGAGGAUCACCCAUGUAAACGCACAGGCG [Esa] (Eterna round: R96, puzzle: Exclusion NG 1) | 0.114 µM | 0.0269 µM |  |  |  | 0.0255 µM |
| ACAUGUCAUCGAGGAUAUUGCACACAUGAGGAUCACCCAUGUAUUCGGUUGCUCUUGCGUGAGUUCGAGAAGGCGAUGUACAUU [Ex NG2 #85] (Eterna round: R96, puzzle: Exclusion NG 2) | 0.134 µM | 0.262 µM |  |  |  | 0.215 µM |
| AUGGGUACUUUCGGAGCGACAUGAGGAUCACCCAUGUAUAUUGAGGAUAUCCACUACUAAGGACGGGAGAAGGCAGUGUACUGU [Ex NG3 #81] (Eterna round: R96, puzzle: Exclusion NG 3) | 0.0533 µM | 0.0464 µM |  |  |  | 0.0292 µM |
| AUUAAUCAGCAGGAUAUAAGUAUCUGAUGGUGGUUAGAAGGGCUGACAUGAGGAUCACCCAUGUGCUCUUCGUG [Beusbi] (puzzle: Exclusion 6) |  |  | 0.0111 µM |  |  |  |
| AGUAGUGGUAUCCGAUCCUACAUGAGGAUCACCCAUGUAGCUAGACGUGCACGCGAUGCUCGUCAGACUACCAGAUG [salish99_TOv1_r3_048] (puzzle: Sensor v3, turn-off variant 1) |  |  | 0.221 µM | 0.218 µM | 0.184 µM |  |
| GAAAAGGUAGGAUAUACGAAAAAAAAGGGUAGAAAAAGAACACAUGAGGAUCACCCAUGUAGAAGGACCAAAAG [salish99_ex2_r3_020] (puzzle: Exclusion 2) |  |  | 0.0209 µM | 0.0728 µM | 0.0203 µM |  |
| CGAUGAGGAGUGAGGAUAUCGUGUUCGAAAGAACGUGAGAAGGCACAUGAGGAUCACCCAUGUGAUCCUCAUCG [Omei Ex4B A21] (Eterna round: R97, puzzle: Brourd's mod of Exclusion 4) | 0.0298 µM | 0.0248 µM |  |  |  |  |

| Sequence | apparent KD of MS2 coat protein (input ligand: FMN 200 uM) | apparent KD of MS2 coat protein (input ligand: none) | apparent KD of MS2 coat protein [1] | apparent KD of MS2 coat protein [2] | apparent KD of MS2 coat protein [3] | apparent KD of MS2 coat protein [4] |
| --- | --- | --- | --- | --- | --- | --- |
| AAGGGUAGGCAGGAUAUCCAGGUCGACACCGCGGGAGAAGGGCUUACAUGAGGAUCACCCAUGUAGGGUGCGAG [EX6 A.2] (Eterna round: R97, puzzle: Exclusion 6) | 0.253 µM | 0.133 µM |  |  |  |  |
| GUGUACAGAGGAUAUACAUGAGGAUCACCCAUGUGAAUAAGAUAGAAUAAGAUAAAGUGUAGAAGGCUGAGUGU [Excluse me!!! 1 - Jieux - Exclusion 3] (puzzle: Exclusion 3) |  |  | 0.0357 µM | 0.0288 µM | 0.0384 µM |  |
| CCUCGACAUGAGGAUCACCCAUGUCAGGAUAUUGUGUCUCGGGUUUUUUACCGAUAGGCAAGAAGGGAUGUGUG [LRO-Excl1-13] (puzzle: Exclusion 1) |  |  | 0.0215 µM |  |  |  |
| CUGAGGUAGCGGUCCUAUGACAUGAGGAUCACCCAUGUACCUUGCUUUGAGCUUAUUGCUCGUCUUAUGAUUCUCGG [Mat - Sensor v3 - turn-off var 1 - JL Mod - D41] (puzzle: Sensor v3, turn-off variant 1) |  |  | 0.299 µM | 0.399 µM | 0.46 µM |  |
| CAAUAACAAGCAGGAUCCUACAUGAGGAUCACCCAUGUGCUCGUCUUAUAAAGUACUAUCACGAAAGUGAUAGUACA [Mat - Sensor v3 - turn-off var 1 - Eli Mod - D71] (puzzle: Sensor v3, turn-off variant 1) |  |  | 0.0586 µM | 0.19 µM | 0.396 µM |  |
| ACGCGUGAAGGAUAUACGCGGGCCCAAGCGGAUCACACCGCACAUGAGGAUCACCCAUGUAGAAGGUCACAAAA [r4x2dt1] (Eterna round: R97, puzzle: Exclusion 2) | 0.169 µM | 0.0235 µM |  |  |  |  |
| GGGCCCGGUGUGAGGAUAUCGGGCCCGAAAGGGUUUGAGAAGGCACAUGAGGAUCACCCAUGUAAGCCGGGCCC [-41.1, -39 kcal, A 23%, 5b-0] (Eterna round: R97, puzzle: Brourd's mod of Exclusion 4) | 0.0171 µM | 0.0153 µM |  |  |  |  |
| AAGCUGAAGUGCCCGUCUUACAUGAGGAUCACCCAUGUUUUGCUGAAGCGAAUACUCGCAUUAGCAAGUGAGGUCCA [Eternabot (Original) Solution 9] (Eterna round: R97, puzzle: Sensor, turn-off variant 1) | 0.0682 µM | 0.0539 µM |  |  |  |  |
| AACCUGAGGCUUUGCUUUAGGUCUACAUGAGGAUCACCCAUGUAGGAUAUGGUAGGCUUUGCUUACCAGAAGGACAUGGUAAUU [JL ENG3 1.13] (Eterna round: R96, puzzle: Exclusion NG 3) | 0.323 µM | 0.0655 µM |  |  |  | 0.0477 µM |
| GAGUUAACGUGAGGAAUAUACAUGAGGAUCACCCAUGUUAACAAAUAUAUUGCUCGUCUUAUAACAACAAUUAACUC [Alarm 7 - Jieux - Sensor, turn-off variant 1] (Eterna round: R97, puzzle: Sensor, turn-off variant 1) | 0.0229 µM | 0.0228 µM |  |  |  |  |
| AAGCUGGUAGGAUAUCGUACACGUAACAUGAGGAUCACCCAUGUGCGCUAUGUUGGAACUCGAGAAGGGCCCAUUC [Eternabot (L2) Solution 3] (Eterna round: R97, puzzle: Exclusion 5) | 0.0193 µM | 0.0185 µM |  |  |  |  |
| GAGUGCUGAGGAUAUACAUGAGGAUCACCCAUGUGCUUCAGCUAGGAGACUAGCAUCGGUAGAAGGCAGUACUC [Mod of lroppy 18 - Jieux - Exclusion 3] (Eterna round: R97, puzzle: Exclusion 3) | 0.0601 µM | 0.0172 µM |  |  |  |  |
| GUUAUCGGAGGAUAUACAUGAGGAUCACCCAUGUGCCAGUAUGUACUAAUCCUUUAGAGUAGAAGGUCGAUAGG [Eternabot (L1) Solution 72] (Eterna round: R97, puzzle: Exclusion 3) | 0.198 µM | 0.118 µM |  |  |  |  |
| CCCAUAUUGGAAGGAUAUUACCACAUGAGGAUCACCCAUGUGGUUUAAGGCUUACAACGACGUGGUAAGAAGGUCCAUUAUAUG [Eternabot solution 45] (Eterna round: R96, puzzle: Exclusion NG 2) | 0.0281 µM | 0.0154 µM |  |  |  | 0.0137 µM |
| UGUACUAACACGAUAGUGUUAGUACUAUAAGCUUGUGUUACAUGAGGAUCACCCAUGUCCUCAUAGGCUCGUCUUAU [Mat - Sensor v3 - Turn-off var 2 - D87] (puzzle: Sensor v3, turn-off variant 2) |  |  | 0.0475 µM | 0.646 µM | 0.446 µM |  |
| AAUACAAGCUAUUGAUCCCACAUGAGGAUCACCCAUGUAGCUGGCGGUGACACCUCCUUUACGAUAGCUCGUCUUAU [Sensor-V1 #55] (Eterna round: R97, puzzle: Sensor, turn-off variant 1) | 0.604 µM | 1.2 µM |  |  |  |  |

Source: the supplement of paper PMC9170038
